These are literature values, as cited in article PMC4495883.

The target of this data set is insulin-degrading enzyme (112 kDa protein) (Rattus norvegicus) (UniProt P35559). In words: cross-linking.
UniProt P35559, sequence (P35559 whole entry): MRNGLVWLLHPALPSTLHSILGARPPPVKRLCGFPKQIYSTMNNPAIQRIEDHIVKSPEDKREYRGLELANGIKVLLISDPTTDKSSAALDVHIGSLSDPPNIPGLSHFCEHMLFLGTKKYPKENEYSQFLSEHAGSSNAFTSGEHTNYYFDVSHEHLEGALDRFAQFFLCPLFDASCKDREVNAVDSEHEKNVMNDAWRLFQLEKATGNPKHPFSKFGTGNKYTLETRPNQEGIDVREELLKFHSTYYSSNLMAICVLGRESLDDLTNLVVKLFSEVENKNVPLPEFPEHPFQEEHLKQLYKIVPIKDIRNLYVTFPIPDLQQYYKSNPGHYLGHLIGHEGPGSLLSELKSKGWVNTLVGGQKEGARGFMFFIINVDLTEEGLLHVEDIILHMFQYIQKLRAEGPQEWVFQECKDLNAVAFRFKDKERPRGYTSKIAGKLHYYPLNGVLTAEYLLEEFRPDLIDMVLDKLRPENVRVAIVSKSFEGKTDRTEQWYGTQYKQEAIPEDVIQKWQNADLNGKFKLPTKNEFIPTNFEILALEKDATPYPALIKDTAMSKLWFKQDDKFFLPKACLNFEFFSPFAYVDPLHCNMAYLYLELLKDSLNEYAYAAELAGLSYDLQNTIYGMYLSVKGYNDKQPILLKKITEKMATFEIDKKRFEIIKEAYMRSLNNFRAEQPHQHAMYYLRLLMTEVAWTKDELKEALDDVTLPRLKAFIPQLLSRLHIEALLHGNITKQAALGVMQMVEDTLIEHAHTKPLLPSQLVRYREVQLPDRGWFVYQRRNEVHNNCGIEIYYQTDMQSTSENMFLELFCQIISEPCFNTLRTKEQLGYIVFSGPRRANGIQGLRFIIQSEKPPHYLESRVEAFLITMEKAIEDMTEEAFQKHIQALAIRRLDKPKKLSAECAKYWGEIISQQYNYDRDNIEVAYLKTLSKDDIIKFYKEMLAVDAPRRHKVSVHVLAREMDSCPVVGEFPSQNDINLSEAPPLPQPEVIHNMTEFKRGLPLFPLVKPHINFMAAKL

By Kd is commonly meant the concentration at which binding is half-saturated. ANP (from UniProt P01161): the Kd is 60 nM.
